This note sets out measurements from paper PMC11997583.

A short description of data set [1]: neutral comet assay after Zeocin. The following applies: glycan lost; control: YTHDC1-WT rescue after siYTHDC1.
Data set [2] can be described thus: γH2AX foci count after Zeocin release. The note with it: glycan lost; control: GFP-YTHDC1-WT.
A short description of data set [3]: CCK-8 assay, Zeocin doses and durations. The note with it: glycan lost; control: YTHDC1-WT.
The nature of data set [4]: GFP foci count after Zeocin or IR, U2OS. The following applies: glycan lost; control: GFP-YTHDC1-WT.
Data set [5] in a line: Rad51/γH2AX co-staining after Zeocin, U2OS. The note with it: glycan lost; control: YTHDC1-WT rescue after siYTHDC1.
Data set [6] is described as follows: FRAP of GFP-YTHDC1 puncta, basal conditions. The note with it: glycan lost; control: GFP-YTHDC1-WT.
The nature of data set [7]: FRAP of GFP-YTHDC1 puncta, Zeocin vs untreated. The following applies: glycan lost; control: GFP-YTHDC1-WT.
Data set [8] can be described thus: GFP/γH2AX colocalisation foci after damage, U2OS. The note with it: glycan lost; control: GFP-YTHDC1-WT, no inhibitor.
Data set [9] is described as follows: chromatin fractionation, anti-Flag blot, Zeocin, 293T. The following applies: glycan lost; control: YTHDC1-WT.

As to YTHDC1: S396A, the “other: DSB repair kinetics” value in [1] is “decreases”. In addition, in data set [2], the “other: persisting γH2AX foci after damage” value was “increases”. Moreover, the “other: cell survival after Zeocin” value in data set [3] is reported as “decreases”. Also, the localisation_or_trafficking entry is listed as “decreases” in data set [4], “decreases” in [8] and “abolishes” in data set [9]. In data set [5], the “other: Rad51 recruitment to DSBs” value is given as “decreases”. Besides, in [6], the “other: condensate dynamics (FRAP recovery)” value is “increases”. In addition, the “other: Zeocin-induced change in FRAP rate” value in data set [7] is listed as “abolishes”.

For YTHDC1: OSMI-1, the localisation_or_trafficking entry in data set [8] is listed as “decreases”.
